Here are results for one protein from US20060110789.

The target of data set [1] is T1, (5)M3+TE (module 3 of DEBS with the N-terminal linker of module 5, fused to thioesterase), Q03132.
T1 chain: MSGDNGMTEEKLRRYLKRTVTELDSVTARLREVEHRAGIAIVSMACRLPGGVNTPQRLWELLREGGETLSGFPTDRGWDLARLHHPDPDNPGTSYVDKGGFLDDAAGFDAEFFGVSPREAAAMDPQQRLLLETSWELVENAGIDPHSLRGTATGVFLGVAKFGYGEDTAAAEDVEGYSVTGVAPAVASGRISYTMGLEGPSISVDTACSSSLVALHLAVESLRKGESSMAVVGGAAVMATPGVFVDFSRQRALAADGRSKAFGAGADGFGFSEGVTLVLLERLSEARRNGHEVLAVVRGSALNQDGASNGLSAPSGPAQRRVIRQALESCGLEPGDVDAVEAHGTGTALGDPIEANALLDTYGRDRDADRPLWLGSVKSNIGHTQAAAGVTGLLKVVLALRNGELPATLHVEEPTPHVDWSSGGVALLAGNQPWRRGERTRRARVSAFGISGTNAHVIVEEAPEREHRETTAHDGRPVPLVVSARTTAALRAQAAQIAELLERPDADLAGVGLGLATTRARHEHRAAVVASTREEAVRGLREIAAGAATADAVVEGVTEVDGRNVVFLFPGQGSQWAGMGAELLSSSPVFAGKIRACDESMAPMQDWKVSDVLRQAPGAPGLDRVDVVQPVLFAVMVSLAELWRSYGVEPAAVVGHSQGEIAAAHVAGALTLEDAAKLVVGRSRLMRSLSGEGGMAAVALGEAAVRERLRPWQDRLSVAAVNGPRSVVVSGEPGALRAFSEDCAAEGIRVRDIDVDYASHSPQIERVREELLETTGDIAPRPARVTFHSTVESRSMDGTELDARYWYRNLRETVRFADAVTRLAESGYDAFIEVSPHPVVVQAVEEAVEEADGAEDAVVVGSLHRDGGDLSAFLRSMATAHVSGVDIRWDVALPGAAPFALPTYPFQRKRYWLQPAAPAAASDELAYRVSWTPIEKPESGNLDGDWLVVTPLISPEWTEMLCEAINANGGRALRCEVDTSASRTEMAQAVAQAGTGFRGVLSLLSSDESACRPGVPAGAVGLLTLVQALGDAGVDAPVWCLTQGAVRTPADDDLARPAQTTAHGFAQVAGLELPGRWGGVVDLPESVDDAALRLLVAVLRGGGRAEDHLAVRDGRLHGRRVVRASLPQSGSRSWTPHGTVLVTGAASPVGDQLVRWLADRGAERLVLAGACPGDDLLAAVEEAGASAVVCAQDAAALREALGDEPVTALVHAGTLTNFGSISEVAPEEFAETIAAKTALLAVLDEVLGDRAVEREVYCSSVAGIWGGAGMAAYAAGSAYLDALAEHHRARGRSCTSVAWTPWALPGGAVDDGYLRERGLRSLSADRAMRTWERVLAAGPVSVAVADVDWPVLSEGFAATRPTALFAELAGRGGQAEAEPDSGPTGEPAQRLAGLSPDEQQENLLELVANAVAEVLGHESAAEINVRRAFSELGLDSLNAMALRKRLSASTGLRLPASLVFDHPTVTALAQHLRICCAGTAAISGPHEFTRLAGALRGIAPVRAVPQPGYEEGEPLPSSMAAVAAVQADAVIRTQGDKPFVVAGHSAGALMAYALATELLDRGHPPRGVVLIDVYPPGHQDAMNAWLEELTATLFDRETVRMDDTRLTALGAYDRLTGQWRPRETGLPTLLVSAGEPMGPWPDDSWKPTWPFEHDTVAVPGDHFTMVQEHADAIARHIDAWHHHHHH

Data set [2] addresses T2, M3+TE (module 3 of DEBS with its own N-terminal linker, fused to thioesterase), Q03132.
T2 chain: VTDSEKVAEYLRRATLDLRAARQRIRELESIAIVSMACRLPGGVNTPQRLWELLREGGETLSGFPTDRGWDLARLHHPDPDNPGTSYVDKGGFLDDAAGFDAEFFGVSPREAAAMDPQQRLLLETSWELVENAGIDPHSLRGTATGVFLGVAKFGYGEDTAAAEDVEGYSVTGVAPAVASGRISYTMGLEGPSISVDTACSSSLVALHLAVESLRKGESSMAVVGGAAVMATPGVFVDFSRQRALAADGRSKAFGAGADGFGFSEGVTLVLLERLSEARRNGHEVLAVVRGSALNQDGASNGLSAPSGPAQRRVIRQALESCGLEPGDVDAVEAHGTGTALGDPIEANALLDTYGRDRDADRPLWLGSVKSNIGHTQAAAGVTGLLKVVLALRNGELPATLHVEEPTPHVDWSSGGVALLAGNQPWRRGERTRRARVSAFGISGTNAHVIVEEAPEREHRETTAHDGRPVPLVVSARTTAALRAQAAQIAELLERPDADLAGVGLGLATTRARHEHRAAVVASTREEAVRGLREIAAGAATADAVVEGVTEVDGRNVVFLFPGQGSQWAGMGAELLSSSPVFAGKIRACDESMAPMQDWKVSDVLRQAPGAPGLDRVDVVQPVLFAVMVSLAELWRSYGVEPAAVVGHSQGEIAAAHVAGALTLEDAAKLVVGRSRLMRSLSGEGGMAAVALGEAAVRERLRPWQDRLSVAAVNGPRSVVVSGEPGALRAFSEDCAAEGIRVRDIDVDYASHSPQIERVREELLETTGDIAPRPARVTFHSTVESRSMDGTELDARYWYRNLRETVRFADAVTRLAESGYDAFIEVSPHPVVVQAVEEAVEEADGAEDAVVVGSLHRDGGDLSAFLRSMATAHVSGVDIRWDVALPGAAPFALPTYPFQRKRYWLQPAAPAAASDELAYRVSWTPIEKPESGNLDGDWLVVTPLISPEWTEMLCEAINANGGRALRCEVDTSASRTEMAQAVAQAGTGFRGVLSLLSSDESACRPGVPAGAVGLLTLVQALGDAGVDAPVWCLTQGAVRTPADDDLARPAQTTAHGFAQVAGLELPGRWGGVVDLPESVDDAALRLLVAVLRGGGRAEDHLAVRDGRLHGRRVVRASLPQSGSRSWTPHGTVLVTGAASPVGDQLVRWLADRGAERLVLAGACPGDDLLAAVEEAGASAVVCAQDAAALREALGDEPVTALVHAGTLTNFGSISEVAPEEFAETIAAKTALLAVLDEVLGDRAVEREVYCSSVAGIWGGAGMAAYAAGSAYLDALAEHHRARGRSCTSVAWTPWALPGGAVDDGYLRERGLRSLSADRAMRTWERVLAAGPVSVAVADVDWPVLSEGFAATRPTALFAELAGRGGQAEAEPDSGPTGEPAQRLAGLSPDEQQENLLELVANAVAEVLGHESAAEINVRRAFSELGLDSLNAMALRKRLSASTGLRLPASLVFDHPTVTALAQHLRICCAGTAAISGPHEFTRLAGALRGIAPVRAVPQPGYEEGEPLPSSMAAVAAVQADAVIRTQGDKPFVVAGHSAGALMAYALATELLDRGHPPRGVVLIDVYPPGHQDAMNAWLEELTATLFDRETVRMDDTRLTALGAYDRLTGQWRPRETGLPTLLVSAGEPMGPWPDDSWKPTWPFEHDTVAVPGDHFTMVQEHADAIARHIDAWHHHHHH

B1: M2(4) (module 2 of DEBS with the C-terminal linker of module 4) (protein)
chain: MSGDNGMTEEKLRRYLKRTVTELDSVTARLREVEHRAGIAIVGMACRLPGEVDSPERLWELITSGRDSAAEVPDDRGWVPDELMASDAAGTRAHGNFMAGAGDFDAAFFGISPREALAMDPQQRQALETTWEALESAGIPPETLRGSDTGVFVGMSHQGYATGRPRPEDGVDGYLLTGNTASVASGRIAYVLGLEGPALTVDTACSSSLVALHTACGSLRDGDCGLAVAGGVSVMAGPEVFTEFSRQGALSPDGRCKPFSDEADGFGLGEGSAFVVLQRLSDARREGRRVLGVVAGSAVNQDGASNGLSAPSGVAQQRVIRRAWARAGITGADVAVVEAHGTGTRLGDPVEASALLATYGKSRGSSGPVLLGSVKSNIGHAQAAAGVAGVIKVLLGLERGVVPPMLCRGERSGLIDWSSGEIELADGVREWSPAADGVRRAGVSAFGVSGTNAHVIIAEPPEPEPVPQPRRMLPATGVVPVVLSARTGAALRAQAGRLADHLAAHPGIAPADVSWTMARARQHFEERAAVLAADTAEAVHRLRAVADGAVVPGVVTGSASDGGSVFVFPGQGAQWEGMARELLPVPVFAESIAECDAVLSEVAGFSVSEVLEPRPDAPSLERVDVVQPVLFAVMVSLARLWRACGAVPSAVIGHSQGEIAAAVVAGALSLEDGMRVVARRSRAVRAVAGRGSMLSVRGGRSDVEKLLADDSWTGRLEVAAVNGPDAVVVAGDAQAAREFLEYCEGVGIRARAIPVDYASHTAHVEPVRDELVQALAGITPRRAEVPFFSTLTGDFLDGTELDAGYWYRNLRHPVEFHSAVQALTDQGYATFIEVSPHPVLASSVQETLDDAESDAAVLGTLERDAGDADRFLTALADAHTRGVAVDWEAVLGRAGLVDLPGYPFQGKRFWLLPDRTTPRDELDGWFYRVDWTEVPRSEPAALRGRWLVVVPEGHEEDGWTVEVRSALAEAGAEPEVTRGVGGLVGDCAGVVSLLALEGDGAVQTLVLVRELDAEGIDAPLWTVTFGAVDAGSPVARPDQAKLWGLGQVASLERGPRWTGLVDLPHMPDPELRGRLTAVLAGSEDQVAVRADAVRARRLSPAHVTATSEYAVPGGTILVTGGTAGLGAEVARWLAGRGAEHLALVSRRGPDTEGVGDLTAELTRLGARVSVHACDVSSREPVRELVHGLIEQGDVVRGVVHAAGLPQQVAINDMDEAAFDEVVAAKAGGAVHLDELCSDAELFLLFSSGAGVWGSARQGAYAAGNAFLDAFARHRRGRGLPATSVAWGLWAAGGMTGDEEAVSFLRERGVRAMPVPRALAALDRVLASGETAVVVTDVDWPAFAESYTAARPRPLLDRIVTTAPSERAGEPETESLRDRLAGLPRAERTAELVRLVRTSTATVLGHDDPKAVRATTPFKELGFDSLAAVRLRNLLNAATGLRLPSTLVFDHPNASAVAGFLDFAASPAVDIGDRLDELEKALEALSAEDGHDDVGQRLESLLRRWNSRRADAPSTSAISEDASDDELFSMLDQRFGGGEDL
Regarding B1, in data set [1], the “KM, fold increase against the natural linker pair (M2 with M3+TE)” value is “the increase in KM value upon swapping in the alternate linker pair is a more modest 2-fold” and the “kcat of tetraketide lactone 2 synthesis” value is reported as “kcat of 0.74±0.06 min^-1”. Moreover, the “highest rate constant of tetraketide lactone 2 formation (mismatched linkers)” value in data set [2] is “in the range of 0.02-0.03 min^-1”.
